This is an account of results in article PMC3335792, “M. tuberculosis Sliding β-Clamp Does Not Interact Directly with the NAD+ -Dependent DNA Ligase”.

Series [1] deals with T1, Mtb beta-clamp, OregonGreen488-labeled (Mycobacterium tuberculosis, UniProt P9WNU1 1-402).
T1 sequence: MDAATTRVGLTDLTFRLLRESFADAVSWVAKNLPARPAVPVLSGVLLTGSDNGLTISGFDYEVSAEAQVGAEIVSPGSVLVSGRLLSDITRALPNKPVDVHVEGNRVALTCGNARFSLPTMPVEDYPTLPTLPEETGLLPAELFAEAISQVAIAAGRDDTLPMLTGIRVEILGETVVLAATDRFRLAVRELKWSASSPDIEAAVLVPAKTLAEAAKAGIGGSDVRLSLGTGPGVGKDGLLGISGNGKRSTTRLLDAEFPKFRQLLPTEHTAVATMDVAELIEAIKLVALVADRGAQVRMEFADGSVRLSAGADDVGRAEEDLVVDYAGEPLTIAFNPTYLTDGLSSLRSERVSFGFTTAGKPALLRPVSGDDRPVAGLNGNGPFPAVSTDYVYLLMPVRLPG
Description: fluorescence intensity titration (OregonGreen-labeled protein); apparent Kd; no Mg2+; 20 mM Tris-Cl pH 7.5, 1 mM DTT, 0.2 mM EDTA, 40 mM NaCl, 22 C, 200 or 500 nM labeled clamp; ex 490 nm, em 517 nm. The settings on record: protein: recombinant, tags: C-terminal 6xHis, OregonGreen488 maleimide, chain copies: 2, label: none in fluorescence assay, 32P in EMSA. In general terms: Mobility shift assays separate free from complexed probe on a gel.

The target of series [2] is T1, Mtb beta-clamp, OregonGreen488-labeled. The experiment in a line: fluorescence intensity titration (OregonGreen-labeled protein); apparent Kd; abstract gives 300 nM; no Mg2+; 20 mM Tris-Cl pH 7.5, 1 mM DTT, 0.2 mM EDTA, 40 mM NaCl, 22 C, 200 or 500 nM labeled clamp; ex 490 nm, em 517 nm. The settings on record: protein: recombinant; tags: C-terminal 6xHis; OregonGreen488 maleimide; chain copies: 2; label: none in fluorescence assay; 32P in EMSA.

B1: nicked duplex (28-mer template + 18-mer + dA10) (dsDNA)
DNA 1: TTTTTTTTTTCCCTTGCTATACGATGGG
DNA 2: CCCATCGTATAGCAAGGG
DNA 3: AAAAAAAAAA
Turning to B1, in series [1] (nicked duplex, 18-mer and 10-mer annealed to 28-mer, blunt ends), the Kd was 530 nM.

B2: 18/28-mer primed template (mixed)
DNA 1: TTTTTTTTTTCCCTTGCTATACGATGGG
DNA 2: CCCATCGTATAGCAAGGG
For B2, the Kd in series [2] was determined as 326 nM.

B3: blunt duplex 18/18 (dsDNA)
DNA 1: CCCATCGTATAGCAAGGG
DNA 2: CCCTTGCTATACGATGGG
B3: in series [1] (blunt), the Kd amounted to 557 nM.
